Measured values published in patent US20250121076A1, “POLYPEPTIDE DRUG CONJUGATE HAVING NOVEL STRUCTURE AND APPLICATION THEREOF” (MEDSHINE DISCOVERY INC., priority 2021, published 2025).
Where a name gives a salt, the structure may show the parent alone. Starred links: 1 amine or outer side, 2 acyl side, 3 side chain; linkers in the order of their positions; H or OH if unused. Positions of bridges follow the written chain, without caps; N, C: chain ends. Non-standard residues stand in square brackets, D forms with d. Residues, ends and D or L forms follow the SMILES beside them. Chains are numbered I, II in the order given. *: point of attachment. TATA = O=C(CC[*:1])N1CN(C(=O)CC[*:2])CN(C(=O)CC[*:3])C1; Dolaproine = CO[C@@H]([C@@H]1CCCN1)[C@@H](C)C(=O)O; Dil = CC[C@H](C)[C@H](NC)[C@@H](CC(=O)O)OC; X2 = O=C(CCCC(=O)[*:2])NCCC(=O)[*:1]; PABC = O=C(OCc1ccc(N[*:1])cc1)[*:2]; X1 = C[C@@H](N*)[C@@H](O)c1ccccc1; Hyp = O=C(O)[C@@H]1C[C@@H](O)CN1; hArg = N=C(N)NCCCC[C@H](N)C(=O)O; Cit = NC(=O)NCCC[C@H](N)C(=O)O; Pen = CC(C)(S)[C@H](N)C(=O)O; NMeV = CN[C@H](C(=O)O)C(C)C; Sar = CNCC(=O)O

Columns and labels:
Stability in plasma [1] = format: in vitro ADME, Humans; conditions: human plasma, 2 μM, 37° C., up to 240 min
Experimental: (§1) To test the stability of the compounds of the present invention in plasma from rats, Cynomolgus macaques, and humans.
(§2) The corresponding incubation plates, including T0, T10, T30, T60, T120, and T240 incubation plates, were added with a 2 μL working solution of the compound to be tested (100 μM). Three parallel wells were prepared for each sample. Then, 98 μL of blank plasma from SD rats, Cynomolgus macaques, and humans was added to the corresponding incubation plates to which the working solution had been added. All samples were incubated in a 37° C. water bath. […] At the end of each incubation time point, the corresponding incubation plate was removed, added with stop buffer, precipitated, and centrifuged for 20 minutes. Then, 150 μL of the supernatant was analyzed by the LC-MS/MS method. The concentration of the compound to be tested in the sample was semi-quantitatively determined by the liquid chromatography-tandem mass spectrometry (LC-MS/MS) method.

Stability in whole blood [2] = format: in vitro ADME, SD rats; conditions: SD rat whole blood, 2 μM, 37° C.
Experimental: (§3) To test the stability of the compounds of the present invention in whole blood from SD rats and Cynomolgus macaques.
(§4) The corresponding incubation plates, including T0, T10, T30, T60, T120, and T240 incubation plates, were added with a 2 μL working solution of the compound to be tested (100 μM). Three parallel wells were prepared for each sample. Then, 98 μL of blank whole blood from SD rats and Cynomolgus macaques was added to the corresponding incubation plates to which the working solution had been added. All samples were incubated in a 37° C. water bath. […] At the end of each incubation time point, the corresponding incubation plate was removed, added with stop buffer, precipitated, and centrifuged for 20 minutes. Then, 100 μL of the supernatant was diluted with 300 μL of ultrapure water, mixed uniformly, and then analyzed by the LC-MS/MS method. The concentration of the compound to be tested in the sample was semi-quantitatively determined by the liquid chromatography-tandem mass spectrometry (LC-MS/MS) method.

Stability in whole blood [3] = format: in vitro ADME, Cynomolgus macaques; conditions: Cynomolgus macaque whole blood, 2 μM, 37° C.
Experimental: as §3, §4

Human EphA2 = biological target: T1, Human EphA2 (Homo sapiens, UniProt P29317); assay: Binding capacity test to EphA2 protein (SPR, Biacore 8K)
T1 construct: purchased Sino Biological 13926-H08HD
T1 sequence (P29317 24-534 limits assumed): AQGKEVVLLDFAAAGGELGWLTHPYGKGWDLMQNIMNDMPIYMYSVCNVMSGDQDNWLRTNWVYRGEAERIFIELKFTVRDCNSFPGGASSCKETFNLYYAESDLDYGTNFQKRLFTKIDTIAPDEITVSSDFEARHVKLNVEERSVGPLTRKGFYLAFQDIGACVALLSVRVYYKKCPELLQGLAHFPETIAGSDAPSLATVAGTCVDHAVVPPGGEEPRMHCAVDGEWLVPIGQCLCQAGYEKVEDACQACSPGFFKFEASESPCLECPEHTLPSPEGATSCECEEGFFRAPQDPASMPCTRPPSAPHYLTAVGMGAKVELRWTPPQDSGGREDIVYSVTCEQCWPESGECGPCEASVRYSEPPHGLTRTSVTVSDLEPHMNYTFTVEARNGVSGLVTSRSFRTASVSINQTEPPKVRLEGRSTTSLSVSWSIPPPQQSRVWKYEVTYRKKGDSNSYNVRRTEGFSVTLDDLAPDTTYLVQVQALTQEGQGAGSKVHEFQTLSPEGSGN
Experimental: To detect the affinity of the compound to be tested to the target protein EphA2 using the SPR method.
• Biacore 8K (GE Healthcare). • 96-well Plate (Cat #650101, greiner bio-one) • CM5 chip (Cat #BR-1005-30, GE Healthcare) • Amine Coupling Kit (Cat #BR-1000-50, GE Healthcare) EDC NHS 1 M ethanolamine. • 10 mM sodium acetate pH 4.5 (Cat #BR-1003-50, GE Healthcare) • DMSO (Cat #D4540, Sigma) • P20 (Cat #BR-1000-54, GE Healthcare). • PBS (Cat #BR-1006-72, GE Healthcare). • EphA2 (Cat #13926-H08HD, Sino Biological)
In this experiment, the amino coupling method was used. The target protein EphA2 was directly immobilized on the CM5 chip using Biacore 8K. The compound to be tested as an analyte was then diluted to a required concentration gradient with a buffer (10 mM PBS, pH 7.4, 137 mM NaCl, 2.7 mM KCl, 5% DMSO, and 0.05% P20) for multi-cycle kinetic detection, in which each cycle is formed by 180 seconds of sample injection and 180 seconds of dissociation, and then the next cycle was performed, to obtain kinetic analysis data on the affinity of the target protein EphA2 to the compound to be tested. The final data were subjected to Kinetics fitting analysis based on a 1:1 model using Biacore Insight Evaluation Software (V 2.0.15.12933).
1) Preparation of the buffer: 10 mM PBS, pH 7.4, 137 mM NaCl, 2.7 mM KCl, 5% DMSO, and 0.05% P20.
2) Activation of the CM5 chip: The CM5 chip was activated with 400 mM EDC and 100 mM NHS at a flow rate of 10 μL/min for 420 seconds.
3) Coupling of the target protein: The target protein was diluted to 10 μg/mL with 10 mM sodium acetate (pH 4.5) and coupled at a flow rate of 10 μL/min for 284 s. The 1 #, 2 #, and 3 #channels on the chip were used in the experiment, and the coupling results were 1639.9RU, 1747.8RU, and 1702.2RU, respectively.
4) Blocking of the CM5 chip: The CM5 chip was blocked with 1 M ethanolamine at a flow rate of 10 μL/min for 420 seconds.
5) Analyte concentration: The compound to be tested was diluted with the buffer. The compound to be tested was diluted from 100 nM to 0.78 nM in a 2-fold gradient.
6) Sample injection analysis: Each concentration of the working solution of the compound to be tested corresponded to one cycle, with a flow rate of 30 μL/min for binding for 180 seconds and dissociating for 180 seconds. The last cycle was a 5% DMSO solvent correction cycle. 7) All results were subjected to kinetics fitting analysis based on a 1:1 model.
The experimental data of five effective concentrations of the compounds of the present invention were selected for Kinetics fitting analysis based on a 1:1 model using Biacore Insight Evaluation Software (V 2.0.15.12933).

[4] = In vivo pharmacokinetic analysis in mice; parameters: species or system CD-1 mice; conditions: mouse, in vivo, CD-1 mice, single IV 2 mg/kg, plasma
Experimental: To test the pharmacokinetics of the compounds of the present invention in CD-1 mice
The pharmacokinetic characteristics of the compound after intravenous injection and oral administration were tested in CD-1 mice according to a standard protocol. The compound of the present invention was formulated into a clear solution using 50 mM acetate buffer (pH=5) in 10% sucrose as a vehicle. Two mice were given a single intravenous injection of 2 mg/kg of the compound to be tested. Whole blood was collected at time points of 0.083, 0.25, 0.5, 1, 2, 4, 8, and 24 hours after administration to get plasma. The concentration of the compound to be tested and the concentration of its potential metabolite MMAE were analyzed by the LC-MS/MS method, and the pharmacokinetic parameters, such as maximal concentration (Cmax), clearance (Cl), half-life (T1/2), […] (Vdss), and area under the concentration-time curve (AUC0-last), were calculated by Phoenix WinNonlin software.

Stability in plasma [5] = format: in vitro ADME, Cynomolgus macaques; conditions: Cynomolgus macaque plasma, 2 μM, 37° C., up to 240 min
Experimental: as §1, §2

CC[C@H](C)[C@@H]([C@@H](CC(=O)N1CCC[C@H]1[C@H](OC)[C@@H](C)C(=O)N[C@H](C)[C@@H](O)c1ccccc1)OC)N(C)C(=O)[C@@H](NC(=O)[C@H](C(C)C)N(C)C(=O)OCc1ccc(NC(=O)[C@H](CCCNC(N)=O)NC(=O)[C@@H](NC(=O)CCCC(=O)NCCC(=O)N(C)CC(=O)N(C)CC(=O)N(C)CC(=O)N(C)CC(=O)N(C)CC(=O)N(C)CC(=O)N(C)CC(=O)N(C)CC(=O)N(C)CC(=O)N(C)CC(=O)N[C@H]2CCCCNC(=O)C[C@@H](C(=O)N[C@H]3CSCCC(=O)N4CN5CN(C4)C(=O)CCSC(C)(C)[C@@H](C(N)=O)NC(=O)[C@H](CCCCNC(=N)N)NC(=O)[C@H](Cc4c[nH]c6ccccc46)NC(=O)[C@@H](CC(=O)O)NC(=O)[C@@H]4CCCN4C(=O)[C@H](Cc4c[nH]cn4)NC(=O)[C@H](CC(C)C)NC(=O)[C@H](CSCCC5=O)NC(=O)[C@H](CC(C)C)NC(=O)[C@@H]4CCCN4C(=O)[C@H](CC(N)=O)NC(=O)[C@H](C(C)C)NC(=O)[C@H](CC(C)C)NC(=O)[C@@H]4C[C@@H](O)CN4C3=O)NC(=O)[C@H](CCCCNC(=N)N)NC2=O)C(C)C)cc1)C(C)C [Acetate salt of PDC_8] (I: [Sar][Sar][Sar][Sar][Sar][Sar][Sar][Sar][Sar][Sar]K[hArg]DC[Hyp]LVNPLCLHP[dD]W[hArg][Pen]-NH2 / II: V[Cit][PABC][NMeV]V[Dil][Dolaproine]-X1; lactam I:11-I:13; linker I:14-I:21-I:28 via TATA; linker I:N-II:N via X2) gave a half-life (Stability in plasma [1]) of over 9.63 h, a half-life (Stability in whole blood [2]) of 9.31 h and a half-life (Stability in whole blood [3]) of over 9.63 h. The Kd (Human EphA2) was 3.46 nM, the AUC(0-t) [4] was 0.56 µM·h and the C0 [4] was 2640 nM. The clearance [4] was 13 mL/min/kg, the half-life [4] was 0.2 h and the Vd ([4]; read-out: Vdss) was 0.19 L/kg. The half-life (Stability in plasma [5]) was over 9.63 h.
